Test [1] concerns the target T1, mouse C5aR1 (Mus musculus, UniProt P30993).
T1 sequence (P30993 1-351): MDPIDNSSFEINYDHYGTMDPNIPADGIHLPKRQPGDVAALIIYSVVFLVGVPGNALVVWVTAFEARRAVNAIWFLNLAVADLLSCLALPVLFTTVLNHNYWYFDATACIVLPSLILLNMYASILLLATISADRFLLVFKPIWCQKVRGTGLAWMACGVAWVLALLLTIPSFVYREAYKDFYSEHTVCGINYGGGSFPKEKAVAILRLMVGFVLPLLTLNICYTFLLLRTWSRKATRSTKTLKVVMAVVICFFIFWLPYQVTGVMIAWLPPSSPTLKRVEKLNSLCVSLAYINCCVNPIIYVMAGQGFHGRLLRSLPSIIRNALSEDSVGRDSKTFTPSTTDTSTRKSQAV
The conditions noted are these: cited from earlier work.

Test [2] has as its target human C5aR2 (C5L2) (Homo sapiens, UniProt Q9P296). Particulars: cited from earlier work.
Test [3] deals with T2, mouse C5aR2 (C5L2) (Mus musculus, UniProt Q8BW93).
T2 sequence (Q8BW93 1-344): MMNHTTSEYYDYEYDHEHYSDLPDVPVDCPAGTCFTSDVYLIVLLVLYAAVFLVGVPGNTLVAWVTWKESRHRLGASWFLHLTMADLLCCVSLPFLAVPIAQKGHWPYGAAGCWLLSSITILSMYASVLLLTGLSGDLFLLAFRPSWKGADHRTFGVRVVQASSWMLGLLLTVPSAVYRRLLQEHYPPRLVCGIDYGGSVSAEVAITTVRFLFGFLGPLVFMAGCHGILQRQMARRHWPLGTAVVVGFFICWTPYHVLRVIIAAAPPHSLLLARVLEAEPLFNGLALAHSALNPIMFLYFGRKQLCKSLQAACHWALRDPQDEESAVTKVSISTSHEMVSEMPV
Particulars: cited from earlier work.

Test [4] concerns C5a-induced effector functions. The conditions noted are these: cited from earlier work.
Test [5] addresses T3, C5aR1 (Homo sapiens, UniProt P21730).
T3 sequence (P21730 1-350): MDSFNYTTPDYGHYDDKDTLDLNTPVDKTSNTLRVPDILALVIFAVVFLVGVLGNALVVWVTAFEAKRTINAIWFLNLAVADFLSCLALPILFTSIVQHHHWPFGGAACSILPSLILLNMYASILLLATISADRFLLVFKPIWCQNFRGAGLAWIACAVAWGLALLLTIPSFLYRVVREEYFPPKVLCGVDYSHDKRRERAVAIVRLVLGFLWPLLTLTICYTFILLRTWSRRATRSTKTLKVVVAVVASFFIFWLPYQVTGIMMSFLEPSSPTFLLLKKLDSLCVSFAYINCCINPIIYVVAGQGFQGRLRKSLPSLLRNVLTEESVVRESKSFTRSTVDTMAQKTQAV
As to the kind of experiment: GC-IC-induced CCL18 and pro-inflammatory cytokine production in CBE-treated human MΦ-like cell line U937 with C5aRA. It counts as cell-based. More on the design: endogenous in cells; host or cells: U937 (human macrophage-like cell line), CBE-treated.

[6] abbreviates: CBE-treated U937 cells, GC-IC stimulation, ELISA.

We go through 1 molecule from patent publication US11324803B2, “Methods and compositions for treatment of Gaucher Disease via modulation of C5a receptor” (Children's Hospital Medical Center, priority 2015, dated 2022).

human C5aR2 (C5L2), sequence (Q9P296 whole entry): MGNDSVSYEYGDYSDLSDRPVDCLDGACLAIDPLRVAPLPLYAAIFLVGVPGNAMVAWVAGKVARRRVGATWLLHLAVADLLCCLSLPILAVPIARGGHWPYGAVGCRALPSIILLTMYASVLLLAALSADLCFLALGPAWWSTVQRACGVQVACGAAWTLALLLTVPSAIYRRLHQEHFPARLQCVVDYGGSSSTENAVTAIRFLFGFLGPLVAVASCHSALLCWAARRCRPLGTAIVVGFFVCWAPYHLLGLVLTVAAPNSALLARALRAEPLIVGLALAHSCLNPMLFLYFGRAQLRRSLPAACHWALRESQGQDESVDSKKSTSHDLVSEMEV

B1: Thr Leu Gln Lys Lys Ile Glu Glu Ile Ala Ala Lys Tyr Lys His Ser Val Val Lys Lys Cys Cys Tyr Asp Gly Ala Ala Val Asn Asn Asp Glu Thr Cys Glu Gln Arg Ala Ala Arg Ile Ser Leu Gly Pro Arg Cys Ile Lys Ala … (protein)
chain: TLQKKIEEIAAKYKHSVVKKCCYDGAAVNNDETCEQRAARISLGPRCIKAFTECCVVASQLRANISFKRS
modifications: mutant C5a-(1-66, Cys27A1a) -A8B-Del. 71-73 of human C5a
notes: positions 27 and 68-71 of human C5a mutated and positions 72-74 deleted
For B1, the “affinity to bind mouse C5aR1” value in test [1] is “high affinity”. The “affinity to bind human C5aR2 (C5L2)” value in test [2] is “high affinity”. In addition, in test [3], the “affinity to bind mouse C5aR2 (C5L2)” value was “high affinity”. Besides, in test [4], the C5a-induced effector functions result is “inhibit”. Moreover, in test [5] (setting [6]), the “GC-IC-induced production of CCL18” value is recorded as “abolished”, the “GC-IC-induced production of IL1β” value is “abolished”, the “GC-IC-induced production of IL6” value was “abolished” and the “GC-IC-induced production of IL23” value is “abolished”. The “GC-IC-induced production of TNFα” value in test [5] (setting [6]) is given as “abolished”. In addition, the “GC-IC-induced production of CCL18” value in test [5] (CBE-treated U937 cells, GC-IC stimulation, ELISA, listed as C5aR antagonist A8^Δ71-73) was “marked reduction”. Moreover, the “MΦs, DC and T cells mediated immune inflammation” value in test [5] (human model of Gaucher disease) is recorded as “significantly reduces”.
